Data taken from PMC5524880, “Mechanisms and Specificity of Phenazine Biosynthesis Protein PhzF” (Scientific Reports, 2017).

Tests used:
purified protein [1] = substrate: CCOC1C=CC=C(C(=O)O)C1N; assay: purified protein; format: biochemical, Pseudomonas fluorescens; settings: 50 mM sodium phosphate pH 7.5, 1% DMSO, 25 °C, 1000 nM PhzF, racemic substrate
purified protein [2] = substrate: N[C@H]1C(C(=O)O)=CC=C[C@@H]1O; assay: purified protein; format: biochemical, Pseudomonas fluorescens; settings: 50 mM sodium phosphate pH 7.5, 1% DMSO, 25 °C
[3] = 200 nM PhzF, labelled compound (deuterated at C3)

B1: PhzF (Pseudomonas fluorescens) (protein)
chain: MHNYVIIDAFASVPLEGNPVAVFFDADDLPPAQMQRIAREMNLSESTFVLKPRNGGDALIRIFTPVNELPFAGHPLLGTAIALGAHTDNHRLYLETQMGTIAFELERQNGSVIAASMDQPIPTWTALGRDAELLKALGISDSTFPIEIYHNGPRHVFVGLPSIDALSALHPDHRALSNFHDMAINCFAGAGRRWRSRMFSPAYGVVEDAATGSAAGPLAIHLARHGQIEFGQPVEILQGVEIGRPSLMFAKAEGRAEQLTRVEVSGNGVTFGRGTIVL
notes: N-terminal His6 tag, expressed in E. coli, homodimer
- Km (purified protein [1]): 1842 ± 355 µM
- kcat (purified protein [1]): 0.12 ± 0.02 s⁻¹
- Km (purified protein [2]; 40 nM PhzF dimer): 517 ± 57 µM
- kcat (purified protein [2]; 40 nM PhzF dimer): 3.23 ± 0.19 s⁻¹
- Km (purified protein [2]; [3]): 311 ± 14 µM
- kcat (purified protein [2]; [3]): 0.34 ± 0.01 s⁻¹
